Source: patent US20220073631A1 (QYUNS THERAPEUTICS, published 2022)
Each block holds one binder with its values, some of them ahead of it.

Assays:
[1] = target: IL-4Rα on human cells (HEK Blue IL-4/IL-13, A549, TF-1, HFL-1, PBMCs) (human, UniProt P24394 26-825); assay: cell-based or functional assay
[2] = target: T1, hIL-4Rα-Mu244 (human, UniProt P24394 26-232); assay: SPR, Biacore T200, by the methods of Example 2
T1 construct: Printed positions fit the mature protein; also called S70Q/A71L/D72R; not shown: C-terminal his-tag
T1 chain: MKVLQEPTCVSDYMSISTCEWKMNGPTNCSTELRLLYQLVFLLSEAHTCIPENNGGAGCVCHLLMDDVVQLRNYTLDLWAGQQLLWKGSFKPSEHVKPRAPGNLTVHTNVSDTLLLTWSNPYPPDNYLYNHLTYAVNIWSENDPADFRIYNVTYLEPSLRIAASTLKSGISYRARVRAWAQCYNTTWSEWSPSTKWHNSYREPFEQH

[3] = target: T2, hIL-4Rα-Mu245 (human, UniProt P24394 26-232); assay: SPR, Biacore T200, by the methods of Example 2
T2 construct: Printed positions fit the mature protein; also called A71L/D72R/N73A; not shown: C-terminal his-tag
T2 chain: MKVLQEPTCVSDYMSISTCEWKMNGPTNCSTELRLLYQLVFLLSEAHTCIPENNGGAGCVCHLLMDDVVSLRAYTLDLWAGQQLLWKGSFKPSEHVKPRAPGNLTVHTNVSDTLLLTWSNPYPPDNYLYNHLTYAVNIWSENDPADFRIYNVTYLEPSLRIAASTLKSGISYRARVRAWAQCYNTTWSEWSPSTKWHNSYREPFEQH

[4] = target: T3, hIL-4Rα-Mu241 (human, UniProt P24394 26-232); assay: SPR, Biacore T200, by the methods of Example 2
T3 construct: Printed positions fit the mature protein; also called D67A/V68R/V69F; not shown: C-terminal his-tag
T3 chain: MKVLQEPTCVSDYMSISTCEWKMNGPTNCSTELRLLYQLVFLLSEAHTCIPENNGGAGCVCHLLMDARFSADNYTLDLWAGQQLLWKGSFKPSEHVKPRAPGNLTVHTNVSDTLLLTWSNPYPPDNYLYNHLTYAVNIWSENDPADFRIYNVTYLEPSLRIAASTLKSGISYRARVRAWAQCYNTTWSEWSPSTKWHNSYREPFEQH
Procedure: (§1) The protein A was chemically coupled to a CM5 chip, and an appropriate amount of the antibody was immobilized by a capture method such that the Rmax was less than 50 RU and the flow rate for the capture was 10 μl/min. The antigen was subject to gradient dilution, and the flow rate in the instrument was switched to 30 μl/min. The antigen was flowed through the reference channel and the channel with the immobilized antibody sequentially in an ascending order of concentration, and the running buffer was flowed through as a negative control. After each binding and dissociation was complete, the chip was regenerated with glycine, pH 1.5. Fitting was performed with the build-in software in the instrument according to a 1:1 binding model. The binding rate constant kₐ, the dissociation rate constant kd, and the equilibrium dissociation constant KD values of the antibody were calculated. Dupilumab was obtained by purchasing a commercially available medicine.
(§2) To further narrow down the key amino acids that PD2-31 binds to, multiple mutants of hIL-4Rα were designed in Loop 2 (V40FLLSEA46) and Loop 3 (M65[…]73) (Table 2). The wild-type hIL-4Rα (hIL-4Rα-ECD) and hIL-4Rα mutants were prepared using standard techniques. Briefly, the expression plasmids containing the extracellular domain of wild-type hIL-4Rα and different mutated hIL-4Rα were constructed and transfected into HEK 293F cells. After expression, the extracellular domain of wild-type hIL-4Rα and hIL-4Rα mutants with C-terminus his-tag were purified by Nickel chromatography. Purified proteins of wild-type hIL-4Rα and hIL-4Rα mutants were analyzed for interaction with PD2-31 and Dupilumab. The interaction was studied by Biacore T200, according to the methods in Example 2.

[5] = target: T4, hIL-4Rα-Mu242 (human, UniProt P24394 26-232); assay: SPR, Biacore T200, by the methods of Example 2
T4 construct: Printed positions fit the mature protein; also called V68R/V69F/S70Q; not shown: C-terminal his-tag
T4 chain: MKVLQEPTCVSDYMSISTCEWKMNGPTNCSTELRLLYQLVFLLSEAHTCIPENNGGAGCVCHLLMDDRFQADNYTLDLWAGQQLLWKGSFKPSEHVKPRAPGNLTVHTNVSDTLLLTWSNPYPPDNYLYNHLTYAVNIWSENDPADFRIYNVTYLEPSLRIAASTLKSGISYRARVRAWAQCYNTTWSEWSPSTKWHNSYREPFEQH
Procedure: as §1, §2

[6] = target: T5, hIL-4Rα-Mu243 (human, UniProt P24394 26-232); assay: SPR, Biacore T200, by the methods of Example 2
T5 construct: Printed positions fit the mature protein; also called V69F/S70Q/A71L; not shown: C-terminal his-tag
T5 chain: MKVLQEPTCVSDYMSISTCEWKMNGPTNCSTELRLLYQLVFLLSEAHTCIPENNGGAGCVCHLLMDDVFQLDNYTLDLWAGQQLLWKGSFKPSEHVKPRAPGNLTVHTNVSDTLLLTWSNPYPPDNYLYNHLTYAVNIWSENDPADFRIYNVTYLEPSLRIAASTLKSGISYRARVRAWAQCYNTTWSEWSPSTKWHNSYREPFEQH
Procedure: as §1, §2

[7] = target: T6, hIL-4Rα-Mu453 (human, UniProt P24394 26-232); assay: SPR, Biacore T200, by the methods of Example 2
T6 construct: Printed positions fit the mature protein; also called D66A/D67A; not shown: C-terminal his-tag
Procedure: as §1, §2

[8] = target: T7, hIL-4Rα-Mu239 (human, UniProt P24394 26-232); assay: SPR, Biacore T200, by the methods of Example 2
T7 construct: Printed positions fit the mature protein; also called M65I/D66A/D67A; not shown: C-terminal his-tag
T7 chain: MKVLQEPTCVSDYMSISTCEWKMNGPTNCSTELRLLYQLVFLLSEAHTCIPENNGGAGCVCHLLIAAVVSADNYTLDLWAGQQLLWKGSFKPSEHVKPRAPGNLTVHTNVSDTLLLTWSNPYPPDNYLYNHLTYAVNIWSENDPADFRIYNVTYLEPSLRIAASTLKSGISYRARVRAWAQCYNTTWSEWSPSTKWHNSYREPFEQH
Procedure: as §1, §2

[9] = target: T8, hIL-4Rα-Mu240 (human, UniProt P24394 26-232); assay: SPR, Biacore T200, by the methods of Example 2
T8 construct: Printed positions fit the mature protein; also called D66A/D67A/V68R; not shown: C-terminal his-tag
T8 chain: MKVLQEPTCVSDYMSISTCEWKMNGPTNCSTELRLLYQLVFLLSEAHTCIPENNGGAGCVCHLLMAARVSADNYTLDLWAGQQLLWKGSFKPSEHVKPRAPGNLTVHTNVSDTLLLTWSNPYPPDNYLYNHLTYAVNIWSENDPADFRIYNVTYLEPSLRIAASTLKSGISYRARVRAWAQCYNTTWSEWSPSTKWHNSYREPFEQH
Procedure: as §1, §2

[10] = target: T9, human IL-4Rα (Shanghai Novoprotein Technology Co., Ltd) (human, UniProt P24394 26-232); assay: SPR, Biacore T200, antibody captured on protein A, antigen as analyte, 25 C, 1:1 model
T9 construct: Bought protein; also called hIL-4Rα; human interleukin-4 receptor alpha
Procedure: as §1

- IC50, IL-4-induced CCL-11 release activity in HFL-1 cells (FIG. 7(A)) [1]: 0.0968 µg/mL
- IC50, IL-4-induced CCL-11 release activity in HFL-1 cells (FIG. 7(B)) [1]: 0.0334 µg/mL
- IC50, IL-4-induced CCL-17 release activity in A549 cells (FIG. 5(A)) [1]: 0.0449 µg/mL
- IC50, IL-4-induced CCL-17 release activity in A549 cells (FIG. 5(B)) [1]: 0.0449 µg/mL
- IC50, IL-4-induced CCL-17 release activity in PBMCs (FIG. 9(A)) [1]: 0.029 µg/mL
- IC50, IL-4-induced CCL-17 release activity in PBMCs (FIG. 9(B)) [1]: 0.0436 µg/mL
- IC50, IL-4-induced STAT6 phosphorylation activity in HEK Blue IL-4/IL-13 cells (FIG. 4(A)) [1]: 0.00439 µg/mL
- IC50, IL-4-induced STAT6 phosphorylation activity in HEK Blue IL-4/IL-13 cells (FIG. 4(B)) [1]: 0.00454 µg/mL
- IC50, IL-4-induced proliferation activity of TF-1 cells (FIG. 6(A)) [1]: 0.0219 µg/mL
- IC50, IL-4-induced proliferation activity of TF-1 cells (FIG. 6(B)) [1]: 0.0188 µg/mL
- IC50, IL-13-induced CCL-11 release activity in HFL-1 cells (FIG. 7(C)) [1]: 0.0475 µg/mL
- IC50, IL-13-induced CCL-11 release activity in HFL-1 cells (FIG. 7(D)) [1]: 0.0869 µg/mL
- IC50, IL-13-induced CCL-17 release activity in A549 cells (FIG. 5(C)) [1]: 0.0373 µg/mL
- IC50, IL-13-induced CCL-17 release activity in A549 cells (FIG. 5(D)) [1]: 0.0465 µg/mL
- IC50, IL-13-induced CCL-17 release activity in PBMCs (FIG. 9(C)) [1]: 0.0984 µg/mL
- IC50, IL-13-induced CCL-17 release activity in PBMCs (FIG. 9(D)) [1]: 0.082 µg/mL
- IC50, IL-13-induced STAT6 phosphorylation activity in HEK Blue IL-4/IL-13 cells (FIG. 4(C)) [1]: 0.0128 µg/mL
- IC50, IL-13-induced STAT6 phosphorylation activity in HEK Blue IL-4/IL-13 cells (FIG. 4(D)) [1]: 0.0127 µg/mL
- IC50, IL-13-induced proliferation activity of TF-1 cells (FIG. 6(C)) [1]: 0.0205 µg/mL
- IC50, IL-13-induced proliferation activity of TF-1 cells (FIG. 6(D)) [1]: 0.0149 µg/mL
- Kd [2]: > 10 nM
- Kd [3]: > 10 nM
- Kd [4]: 41.2 nM
- koff [4]: 0.00444 s⁻¹
- kon [4]: 108000 M⁻¹ s⁻¹
- Kd [5]: 27.3 nM
- koff [5]: 0.00357 s⁻¹
- kon [5]: 131000 M⁻¹ s⁻¹
- Kd [6]: 0.0361 nM
- koff [6]: 3.41e-05 s⁻¹
- kon [6]: 945000 M⁻¹ s⁻¹
- Kd [7]: 0.196 nM
- koff [7]: 3.78e-05 s⁻¹
- kon [7]: 193000 M⁻¹ s⁻¹
- Kd [8]: 0.223 nM
- koff [8]: 5.63e-05 s⁻¹
- kon [8]: 253000 M⁻¹ s⁻¹
- Kd [9]: 4.07 nM
- koff [9]: 0.000421 s⁻¹
- kon [9]: 103000 M⁻¹ s⁻¹
B1: Dupilumab (antibody, V domains shown)
VH: EVQLVESGGGLEQPGGSLRLSCAGSGFTFRDYAMTWVRQAPGKGLEWVSSISGSGGNTYYADSVKGRFTISRDNSKNTLYLQMNSLRAEDTAVYYCAKDRLSITIRPRYYGLDVWGQGTTVTVSS
VL: DIVMTQSPLSLPVTPGEPASISCRSSQSLLYSIGYNYLDWYLQKSGQSPQLLIYLGSNRASGVPDRFSGSGSGTDFTLKISRVEAEDVGFYYCMQALQTPYTFGQGTKLEIKR

- IC50, IL-4-induced CCL-11 release activity in HFL-1 cells (FIG. 7(B)) [1]: 0.0643 µg/mL
- IC50, IL-4-induced CCL-17 release activity in A549 cells (FIG. 5(B)) [1]: 0.0461 µg/mL
- IC50, IL-4-induced CCL-17 release activity in PBMCs (FIG. 9(B)) [1]: 0.0678 µg/mL
- IC50, IL-4-induced STAT6 phosphorylation activity in HEK Blue IL-4/IL-13 cells (FIG. 4(B)) [1]: 0.0065 µg/mL
- IC50, IL-4-induced proliferation activity of TF-1 cells (FIG. 6(B)) [1]: 0.0193 µg/mL
- IC50, IL-13-induced CCL-11 release activity in HFL-1 cells (FIG. 7(D)) [1]: 0.0895 µg/mL
- IC50, IL-13-induced CCL-17 release activity in A549 cells (FIG. 5(D)) [1]: 0.0495 µg/mL
- IC50, IL-13-induced CCL-17 release activity in PBMCs (FIG. 9(D)) [1]: 0.117 µg/mL
- IC50, IL-13-induced STAT6 phosphorylation activity in HEK Blue IL-4/IL-13 cells (FIG. 4(D)) [1]: 0.0213 µg/mL
- IC50, IL-13-induced proliferation activity of TF-1 cells (FIG. 6(D)) [1]: 0.0161 µg/mL
- Kd [10]: 0.207 nM
- koff [10]: 9.9e-05 s⁻¹
- kon [10]: 481000 M⁻¹ s⁻¹
B2: QX005N (HZD82-12) (antibody, V domains shown)
VH: EVQLVESGGGLVQPGGSLRLSCAASGFSLNSNAVGWVRQAPGKGLEYIGFINFSGITYYANWAKGRFTISRDNSKNTLYLQMNSLRAEDTAVYYCARGSAGSFDLWGQGTLVTVSS
VL: DIQMTQSPSSLSASVGDRVTITCQASESVYKNNYLAWYQQKPGKAPKLLIYRASNLASGVPSRFSGSGSGTDFTLTISSLQPEDFATYYCQGGYSSGMYPFGQGTKVEIK
notes: Humanized from rabbit clone #82, expressed as a full antibody in ExpiCHO-S cells (heavy chain 48.3 kDa, light chain 23.6 kDa)
